Molecular target: lymphocyte function associated-1 (LFA-1, CD11a/CD18) (UniProt P20701)
Assay: radioligand binding

Sequence of lymphocyte function associated-1 (LFA-1, CD11a/CD18) (P20701 26-1170, chain 1 of 2): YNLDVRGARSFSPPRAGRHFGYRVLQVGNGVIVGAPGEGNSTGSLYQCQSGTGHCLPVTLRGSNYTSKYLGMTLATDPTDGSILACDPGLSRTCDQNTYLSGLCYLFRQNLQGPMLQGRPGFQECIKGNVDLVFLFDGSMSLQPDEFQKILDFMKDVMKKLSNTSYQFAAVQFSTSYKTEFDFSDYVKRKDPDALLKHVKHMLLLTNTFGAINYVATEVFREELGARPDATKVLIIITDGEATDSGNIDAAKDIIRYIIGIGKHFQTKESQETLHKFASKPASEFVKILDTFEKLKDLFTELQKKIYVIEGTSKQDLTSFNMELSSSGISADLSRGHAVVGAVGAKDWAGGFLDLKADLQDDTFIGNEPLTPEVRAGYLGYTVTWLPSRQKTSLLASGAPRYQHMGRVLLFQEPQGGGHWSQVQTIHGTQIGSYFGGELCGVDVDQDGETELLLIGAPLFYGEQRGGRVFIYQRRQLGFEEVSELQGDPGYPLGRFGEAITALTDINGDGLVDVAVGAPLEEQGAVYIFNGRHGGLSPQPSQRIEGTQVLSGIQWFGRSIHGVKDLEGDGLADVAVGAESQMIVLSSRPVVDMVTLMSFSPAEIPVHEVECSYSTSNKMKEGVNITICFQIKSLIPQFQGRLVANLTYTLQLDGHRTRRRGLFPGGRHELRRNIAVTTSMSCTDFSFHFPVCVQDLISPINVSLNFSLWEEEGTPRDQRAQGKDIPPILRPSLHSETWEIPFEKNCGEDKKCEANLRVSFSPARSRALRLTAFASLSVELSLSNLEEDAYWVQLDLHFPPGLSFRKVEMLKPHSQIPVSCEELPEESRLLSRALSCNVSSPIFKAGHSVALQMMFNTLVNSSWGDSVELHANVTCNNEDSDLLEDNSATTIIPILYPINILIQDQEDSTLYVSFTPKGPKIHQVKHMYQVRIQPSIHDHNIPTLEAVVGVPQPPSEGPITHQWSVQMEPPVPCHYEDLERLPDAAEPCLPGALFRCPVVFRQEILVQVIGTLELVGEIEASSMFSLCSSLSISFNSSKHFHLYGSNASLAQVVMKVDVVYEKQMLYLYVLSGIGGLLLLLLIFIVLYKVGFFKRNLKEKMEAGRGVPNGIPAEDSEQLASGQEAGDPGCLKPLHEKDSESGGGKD
Sequence of lymphocyte function associated-1 (LFA-1, CD11a/CD18) (P05107 23-769, chain 2 of 2, further chain): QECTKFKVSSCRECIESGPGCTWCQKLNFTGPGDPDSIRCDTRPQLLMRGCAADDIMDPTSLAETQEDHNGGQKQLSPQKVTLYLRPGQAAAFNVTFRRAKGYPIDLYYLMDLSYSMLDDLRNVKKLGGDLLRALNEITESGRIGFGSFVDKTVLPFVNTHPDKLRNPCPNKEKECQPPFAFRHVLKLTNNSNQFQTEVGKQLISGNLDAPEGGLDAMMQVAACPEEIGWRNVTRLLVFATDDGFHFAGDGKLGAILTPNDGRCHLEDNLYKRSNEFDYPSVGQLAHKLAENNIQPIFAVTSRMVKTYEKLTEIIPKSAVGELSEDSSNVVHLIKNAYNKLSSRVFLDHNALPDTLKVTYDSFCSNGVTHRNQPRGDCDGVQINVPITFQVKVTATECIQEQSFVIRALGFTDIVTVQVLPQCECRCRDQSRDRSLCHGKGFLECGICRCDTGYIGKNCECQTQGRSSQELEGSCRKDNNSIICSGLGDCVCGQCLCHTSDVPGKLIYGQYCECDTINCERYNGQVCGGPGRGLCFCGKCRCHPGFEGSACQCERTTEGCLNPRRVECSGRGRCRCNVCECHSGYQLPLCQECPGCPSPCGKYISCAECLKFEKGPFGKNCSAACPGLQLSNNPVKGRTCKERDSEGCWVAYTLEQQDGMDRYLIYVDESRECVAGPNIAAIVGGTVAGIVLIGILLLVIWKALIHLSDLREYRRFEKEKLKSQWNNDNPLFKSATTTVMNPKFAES

ICAM-1-HA dimer (from UniProt P05362 28-480) (complex)
KD of the high affinity component: 8 nM
